Data: the supplement of paper PMC10724198
± gives the standard deviation of the averaged measurements.

What was measured:
[1] = system: Saccharomyces cerevisiae; assay: protein stability index of tFT-peptide fusion (C-terminal peptide) (PSI (0-1 scale)); higher = more stable (slower turnover); details: genetic background: wild type; temperature: 30 C
[2] = system: Saccharomyces cerevisiae; assay: as above
Protocol: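 MPS profiling in S. cerevisiae of the tFT-X12 degron library: putative degron peptides plus stable controls, 12 aa, fused to the C-terminus of a sfGFP-mCherry timer. Cells are FACS-sorted into 8 mCherry/sfGFP bins and deep-sequenced. PSI runs from 0 (unstable) to 1 (stable). Backgrounds are wild type, das1Δ and doa10Δ at 30 °C, and wild type, das1Δ, cdc34-1 and cdc53-1 at 37 °C; 2-3 technical replicates each.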

[3] = genetic background: cdc34-1, temperature: 37 C
[4] = genetic background: cdc53-1, temperature: 37 C
[5] = genetic background: das1 deletion, temperature: 30 C
[6] = genetic background: das1 deletion, temperature: 37 C
[7] = genetic background: doa10 deletion, temperature: 30 C
[8] = genetic background: wild type, temperature: 30 C
[9] = genetic background: wild type, temperature: 37 C
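Further: PSI is a weighted mean of sequencing reads over stability bins, variants kept only with over 10 reads, mCherry proximal and sfGFP distal, peptide attached via GGGS linker.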

Sequence	protein stability index [1]	protein stability index [2, 3]	protein stability index [2, 4]	protein stability index [2, 5]	protein stability index [2, 6]	protein stability index [2, 7]	protein stability index [2, 8]	protein stability index [2, 9]
VFFLFLVFLTVV	0.259 ± 0.01	0.198 ± 0.059	0.164 ± 0.017	0.23 ± 0.01	0.324 ± 0.018	0.222 ± 0.011	0.195 ± 0.029	0.263 ± 0.0089
FIRLFLVSFFIS	0.31 ± 0.089	0.405 ± 0.048	0.451 ± 0.027	0.375 ± 0.019	0.567 ± 0.032	0.174 ± 0.013	0.189 ± 0.022	0.298 ± 0.0093
VVMASSIIVVAG	0.2528 ± 0.001	0.0539 ± 0.0055	0.0512 ± 0.027	0.11 ± 0.097	0.216 ± 0.0022	0.105 ± 0.029	0.142 ± 0.058	0.167 ± 0.027
VFFFFSLVNFRV	0.486 ± 0.041	0.546 ± 0.061	0.574 ± 0.041	0.459 ± 0.042	0.606 ± 0.017	0.47 ± 0.05	0.419 ± 0.021	0.549 ± 0.03
LASLSRPFRAKF	0.792 ± 0.0093	0.9674 ± 0.0085	0.949 ± 0.026	0.843 ± 0.011	0.914 ± 0.013	0.828 ± 0.029	0.8573 ± 0.0074	0.916 ± 0.012
LWFFVVVVVRWV	0.189 ± 0.053	0.102 ± 0.014	0.135 ± 0.0081	0.149 ± 0.032	0.2611 ± 0.0017	0.139 ± 0.019	0.136 ± 0.027	0.183 ± 0.03
KRRKERIKIQQI	0.261 ± 0.062	0.628 ± 0.037	0.715 ± 0.041	0.634 ± 0.073	0.737 ± 0.089	0.122 ± 0.0062	0.168 ± 0.046	0.28 ± 0.0094
SLFFCIPIHSVF	0.461 ± 0.014	0.606 ± 0.046	0.585 ± 0.0079	0.491 ± 0.014	0.5855 ± 0.0036	0.398 ± 0.012	0.423 ± 0.021	0.524 ± 0.013
GFSFFFIFWFFF	0.348 ± 0.022	0.394 ± 0.014	0.422 ± 0.011	0.35 ± 0.018	0.503 ± 0.034	0.378 ± 0.034	0.339 ± 0.027	0.436 ± 0.033
GPVRSPPSPTPR	0.727 ± 0.05	0.674 ± 0.03	0.737 ± 0.0096	0.682 ± 0.015	0.73559 ± 0.00023	0.674 ± 0.024	0.66 ± 0.027	0.698 ± 0.014
ARFCFRIFSFAS	0.0816 ± 0.0097	0.159 ± 0.018	0.178 ± 0.0049	0.288 ± 0.032	0.168 ± 0.0092	0.0406 ± 0.0038	0.0456 ± 0.0018	0.0722 ± 0.018
FRFYCGLVIANV	0.483 ± 0.027	0.455 ± 0.016	0.484 ± 0.029	0.385 ± 0.019	0.51729 ± 0.00021	0.359 ± 0.03	0.377 ± 0.031	0.531 ± 0.039
LFTVCMIIQMVH	0.177 ± 0.017	0.0516 ± 0.003	0.185 ± 0.0029	0.145 ± 0.036	0.273 ± 0.02	0.0793 ± 0.0011	0.1 ± 0.055	0.173 ± 0.016
FFSGSVFMAVSL	0.408 ± 0.008	0.387 ± 0.011	0.44 ± 0.0097	0.444 ± 0.04	0.399 ± 0.017	0.467 ± 0.036	0.433 ± 0.02	0.37901 ± 0.00016
FLYFLLQFLCSG	0.516 ± 0.034	0.517 ± 0.04	0.544 ± 0.0046	0.418 ± 0.034	0.597 ± 0.046	0.406 ± 0.0045	0.421 ± 0.029	0.579 ± 0.034
DRTRLFLLLIIA	0.246 ± 0.042	0.179 ± 0.0023	0.256 ± 0.038	0.202 ± 0.028	0.4013 ± 0.0035	0.139 ± 0.0068	0.165 ± 0.016	0.273 ± 0.019
SQIALIQYFHIL	0.101 ± 0.06	0.408 ± 0.02	0.655 ± 0.017	0.594 ± 0.015	0.704 ± 0.016	0.0937 ± 0.022	0.1 ± 0.017	0.202 ± 0.029
LFVGLVSFRIGA	0.477 ± 0.029	0.563 ± 0.039	0.573 ± 0.014	0.428 ± 0.029	0.601 ± 0.0068	0.399 ± 0.018	0.419 ± 0.021	0.575 ± 0.0069
VLAYFCYVVFVI	0.314 ± 0.016	0.306 ± 0.01	0.343 ± 0.0056	0.27 ± 0.0087	0.3896 ± 0.0036	0.291 ± 0.0044	0.263 ± 0.011	0.354 ± 0.0069
QIGSMLGVQGVG	0.498 ± 0.031	0.454 ± 0.017	0.526 ± 0.013	0.461 ± 0.013	0.516 ± 0.0073	0.495 ± 0.014	0.4672 ± 0.0041	0.545 ± 0.027
PRTTHTPLLIAS	0.296 ± 0.021	0.566 ± 0.046	0.6584 ± 0.003	0.54 ± 0.012	0.662 ± 0.03	0.177 ± 0.012	0.205 ± 0.025	0.296 ± 0.046
PLCLFPPLLVFL	0.462 ± 0.032	0.492 ± 0.044	0.526 ± 0.034	0.411 ± 0.024	0.556 ± 0.021	0.453 ± 0.022	0.387 ± 0.02	0.5103 ± 0.0047
VLRFVYDLVSAL		0.559 ± 0.036	0.599 ± 0.011	0.531 ± 0.029	0.643 ± 0.036	0.334 ± 0.0067	0.342 ± 0.021	0.435 ± 0.015
RGGVRGVRSGRG		0.588 ± 0.016	0.716 ± 0.047	0.478 ± 0.014	0.565 ± 0.026	0.4741 ± 0.0046	0.485 ± 0.02	0.631 ± 0.045
PLPSRLRRFVPV		0.656 ± 0.05	0.701 ± 0.0078	0.595 ± 0.0072	0.7072 ± 0.0018	0.613 ± 0.018	0.62 ± 0.014	0.6801 ± 0.0039
VQTVRLVFQVLA		0.307 ± 0.0063	0.373 ± 0.049	0.25 ± 0.033	0.4 ± 0.0099	0.106 ± 0.0074	0.125 ± 0.031	0.207 ± 0.018
VRWALLGVVVEG		0.388 ± 0.014	0.398 ± 0.0062	0.293 ± 0.029	0.4742 ± 0.00066	0.246 ± 0.0085	0.286 ± 0.027	0.428 ± 0.013
SLTHTPLGVTRT		0.657 ± 0.033	0.748 ± 0.012	0.6409 ± 0.0026	0.72832 ± 0.00066	0.635 ± 0.013	0.642 ± 0.011	0.704 ± 0.0086

Sequence	protein stability index [1]	protein stability index [2, 3]	protein stability index [2, 4]	protein stability index [2, 5]	protein stability index [2, 6]	protein stability index [2, 7]	protein stability index [2, 8]	protein stability index [2, 9]
DFWCIIVIFLFR		0.221 ± 0.004	0.348 ± 0.027	0.248 ± 0.015	0.393 ± 0.015	0.225 ± 0.0077	0.251 ± 0.031	0.34 ± 0.0045
PPCSLLPPPPAP		0.624 ± 0.049	0.7196 ± 0.0057	0.682 ± 0.043	0.713 ± 0.0088	0.715 ± 0.023	0.674 ± 0.056	0.687 ± 0.024
TLDWKFGWGGIG		0.603 ± 0.011	0.579 ± 0.016	0.566 ± 0.024	0.6477 ± 0.0045	0.5685 ± 0.002	0.574 ± 0.021	0.645 ± 0.018
LVGYSVFVLFFS		0.282 ± 0.015	0.5056 ± 0.0012	0.253 ± 0.034	0.498 ± 0.012	0.21 ± 0.0089	0.226 ± 0.048	0.426 ± 0.037
FHSALIAIAAYV		0.135 ± 0.012	0.128 ± 0.032	0.201 ± 0.029	0.2396 ± 0.00086	0.162 ± 0.024	0.202 ± 0.016	0.217 ± 0.0052
APLPPPPASVPP		0.656 ± 0.076	0.7014 ± 0.0041	0.672 ± 0.015	0.711 ± 0.014	0.65 ± 0.014	0.649 ± 0.03	0.691 ± 0.0089
LSLLILFVLLSF		0.444 ± 0.014	0.476 ± 0.016	0.355 ± 0.042	0.449 ± 0.023	0.3914 ± 0.00083	0.385 ± 0.024	0.463 ± 0.039
SYRGIGVGLCAG	0.622 ± 0.016							
PANLLHPSDPPP	0.612 ± 0.0064							
LQEQIHKPPKPQ	0.72 ± 0.00088							
PPPPLPPQPPPP	0.654 ± 0.0073							
SCLFGIFRWWVG	0.568 ± 0.025							
LSVMACGMGESI	0.696 ± 0.017							
GWARQAADGWGG	0.709 ± 0.089							
AMAMSSGQCFSS	0.67674 ± 0.00043							
LLFSTPWVWCLL	0.623 ± 0.051							
RRSRFSGACLLM	0.773 ± 0.13							
PLSLPPPPPSLP	0.723 ± 0.022							
ISVAHIPPVYHS	0.643 ± 0.038							
PEFNKLNRFVSQ	0.74 ± 0.11							
EKKKEKHKDQEK	0.692 ± 0.055							
PPPRSSLRLPSA	0.652 ± 0.063							
KSVMVLRLLELK	0.636 ± 0.032							
RGPPIPTLRYQH	0.746 ± 0.079							
FVGWVAMGGSVV	0.731 ± 0.024							
LPGFTLPSSPSH	0.702 ± 0.034							
ENGRRTDKKVST	0.687 ± 0.023							
